Paper PMC3218832

Experiments:
[1] = test system: RELARELA (p65 homodimer) (Homo sapiens); assay: EMSA-Seq; conditions: Footprinting/EMSA: 10 mM Tris pH 7.4, 75 mM NaCl, 1 mM EDTA, 1 mM DTT, 200 ug/ml BSA, 0.005% NP-40, EMSA-Seq: 12 mM HEPES pH 7.8, 75 mM KCl, 4 mM …
[2] = test system: RELA (p65) subunit of heterodimer;p50 subunit (Homo sapiens;Homo sapiens); assay: EMSA-Seq; conditions: Footprinting/EMSA: 10 mM Tris pH 7.4, 75 mM NaCl, 1 mM EDTA, 1 mM DTT, 200 ug/ml BSA, 0.005% NP-40, EMSA-Seq: 12 mM HEPES pH 7.8, 75 mM KCl, 4 mM …
[3] = test system: RELA (p65) subunit of heterodimer;p52 subunit (Homo sapiens;Homo sapiens); assay: EMSA-Seq; conditions: Footprinting/EMSA: 10 mM Tris pH 7.4, 75 mM NaCl, 1 mM EDTA, 1 mM DTT, 200 ug/ml BSA, 0.005% NP-40, EMSA-Seq: 12 mM HEPES pH 7.8, 75 mM KCl, 4 mM …
[4] = test system: RELA (p65) subunit of heterodimer;p50 subunit (Homo sapiens;Homo sapiens); assay: UV laser footprinting; conditions: Footprinting/EMSA: 10 mM Tris pH 7.4, 75 mM NaCl, 1 mM EDTA, 1 mM DTT, 200 ug/ml BSA, 0.005% NP-40, EMSA-Seq: 12 mM HEPES pH 7.8, 75 mM KCl, 4 mM …
[5] = test system: RELA (p65) subunit of heterodimer;p52 subunit (Homo sapiens;Homo sapiens); assay: UV laser footprinting; conditions: Footprinting/EMSA: 10 mM Tris pH 7.4, 75 mM NaCl, 1 mM EDTA, 1 mM DTT, 200 ug/ml BSA, 0.005% NP-40, EMSA-Seq: 12 mM HEPES pH 7.8, 75 mM KCl, 4 mM …
[6] = target: RELA (p65) subunit of heterodimer;p52 subunit (Homo sapiens;Homo sapiens) (UniProt Q04206+Q00653); assay: footprint; conditions: UV laser footprinting: 10 mM Tris pH 7.4, 75 mM NaCl, 1 mM EDTA, 1 mM DTT, 200 ug/ml BSA, 0.005% NP-40; microarray buffer in Additional file 1 (not seen); low values mean tight binding
Chain of RELA (p65) subunit of heterodimer;p52 subunit (Homo sapiens;Homo sapiens) (UniProt Q04206+Q00653) (Q04206 1-307, chain 1 of 2): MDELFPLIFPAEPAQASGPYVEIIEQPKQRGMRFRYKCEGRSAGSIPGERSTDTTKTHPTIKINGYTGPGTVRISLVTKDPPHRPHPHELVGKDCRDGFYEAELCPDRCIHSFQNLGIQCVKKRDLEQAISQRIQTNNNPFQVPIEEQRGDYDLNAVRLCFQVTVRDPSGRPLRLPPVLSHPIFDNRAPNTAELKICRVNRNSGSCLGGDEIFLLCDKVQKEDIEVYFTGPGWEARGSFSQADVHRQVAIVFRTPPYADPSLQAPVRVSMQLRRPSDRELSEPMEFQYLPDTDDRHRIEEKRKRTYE
Chain of RELA (p65) subunit of heterodimer;p52 subunit (Homo sapiens;Homo sapiens) (UniProt Q04206+Q00653) (Q00653 4-332, chain 2 of 2): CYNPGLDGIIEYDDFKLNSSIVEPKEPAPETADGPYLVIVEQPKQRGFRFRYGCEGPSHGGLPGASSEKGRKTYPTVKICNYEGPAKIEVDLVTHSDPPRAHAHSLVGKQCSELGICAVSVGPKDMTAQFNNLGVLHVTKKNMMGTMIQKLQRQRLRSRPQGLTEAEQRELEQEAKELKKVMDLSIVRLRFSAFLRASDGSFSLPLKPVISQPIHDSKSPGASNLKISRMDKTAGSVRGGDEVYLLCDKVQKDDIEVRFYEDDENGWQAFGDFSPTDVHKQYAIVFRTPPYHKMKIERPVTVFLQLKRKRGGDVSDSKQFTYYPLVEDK

[7] = target: RELA (p65) subunit of heterodimer;p50 subunit (Homo sapiens;Homo sapiens) (UniProt Q04206+P19838); assay: footprint; conditions: UV laser footprinting: 10 mM Tris pH 7.4, 75 mM NaCl, 1 mM EDTA, 1 mM DTT, 200 ug/ml BSA, 0.005% NP-40; microarray buffer in Additional file 1 (not seen); low values mean tight binding
Chain of RELA (p65) subunit of heterodimer;p50 subunit (Homo sapiens;Homo sapiens) (UniProt Q04206+P19838) (Q04206 1-307, chain 1 of 2): as the sequence (Q04206 1-307, chain 1 of 2) above
Chain of RELA (p65) subunit of heterodimer;p50 subunit (Homo sapiens;Homo sapiens) (UniProt Q04206+P19838) (P19838 7-356, chain 2 of 2): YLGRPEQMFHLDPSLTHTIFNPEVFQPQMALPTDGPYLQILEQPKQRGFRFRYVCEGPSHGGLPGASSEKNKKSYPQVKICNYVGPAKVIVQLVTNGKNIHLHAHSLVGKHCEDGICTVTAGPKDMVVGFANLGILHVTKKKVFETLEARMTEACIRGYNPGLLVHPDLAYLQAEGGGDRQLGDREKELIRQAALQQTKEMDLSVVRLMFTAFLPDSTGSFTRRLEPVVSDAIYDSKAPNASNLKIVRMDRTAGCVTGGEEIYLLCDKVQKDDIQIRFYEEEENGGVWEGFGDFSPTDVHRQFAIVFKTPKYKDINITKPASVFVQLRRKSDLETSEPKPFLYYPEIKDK

[8] = target: RELARELA (p65 homodimer) (Homo sapiens) (UniProt Q04206); assay: footprint; conditions: UV laser footprinting: 10 mM Tris pH 7.4, 75 mM NaCl, 1 mM EDTA, 1 mM DTT, 200 ug/ml BSA, 0.005% NP-40; microarray buffer in Additional file 1 (not seen); low values mean tight binding
Chain of RELARELA (p65 homodimer) (Homo sapiens) (UniProt Q04206) (Q04206 1-307): as the sequence (Q04206 1-307, chain 1 of 2) above

[9] = test system: RELA (p65) subunit of heterodimer;p50 subunit (Homo sapiens;Homo sapiens); assay: protein binding microarray; conditions: Footprinting/EMSA: 10 mM Tris pH 7.4, 75 mM NaCl, 1 mM EDTA, 1 mM DTT, 200 ug/ml BSA, 0.005% NP-40, EMSA-Seq: 12 mM HEPES pH 7.8, 75 mM KCl, 4 mM …
[10] = test system: RELA (p65) subunit of heterodimer;p52 subunit (Homo sapiens;Homo sapiens); assay: protein binding microarray; conditions: Footprinting/EMSA: 10 mM Tris pH 7.4, 75 mM NaCl, 1 mM EDTA, 1 mM DTT, 200 ug/ml BSA, 0.005% NP-40, EMSA-Seq: 12 mM HEPES pH 7.8, 75 mM KCl, 4 mM …
[11] = test system: RELARELA (p65 homodimer) (Homo sapiens); assay: UV laser footprinting; conditions: Footprinting/EMSA: 10 mM Tris pH 7.4, 75 mM NaCl, 1 mM EDTA, 1 mM DTT, 200 ug/ml BSA, 0.005% NP-40, EMSA-Seq: 12 mM HEPES pH 7.8, 75 mM KCl, 4 mM …
[12] = test system: RELARELA (p65 homodimer) (Homo sapiens); assay: protein binding microarray; conditions: Footprinting/EMSA: 10 mM Tris pH 7.4, 75 mM NaCl, 1 mM EDTA, 1 mM DTT, 200 ug/ml BSA, 0.005% NP-40, EMSA-Seq: 12 mM HEPES pH 7.8, 75 mM KCl, 4 mM …

Row | Sequence | binding signal [2] [z-score] | binding signal [3] [z-score] | Kd [4] [nM] | Kd [5] [nM] | also measured
1 | CTGGGGATTTA 11-mer in EMSA-Seq ligands | 24.2 | 19.5 | – | – | binding signal [1]: 10.8 z-score
2 | CTGGGGATTTA footprint probe | – | – | 16 | 13.8 | –
3 | AGGAAATTCCG (double strand) | – | – | – | – | binding signal (Kd, unit not seen) [6]: 1.7; binding signal (Kd, unit not seen) [7]: 4.6; binding signal (Kd, unit not seen) [8]: 3.25
4 | AGGGGGATCTG footprint probe | – | – | 10.5 | 2 | –
5 | AGGGGGATCTG 11-mer in EMSA-Seq ligands | 23.1 | 18.4 | – | – | –
6 | AGGGGGATCTG microarray probes | – | – | – | – | binding signal [9]: 2.39 z-score; binding signal [10]: 1.76 z-score
7 | AGGGGAAGTTA 11-mer in EMSA-Seq ligands | 35.4 | 27.5 | – | – | binding signal [1]: 3.78 z-score
8 | AGGGGAAGTTA footprint probe | – | – | 26 | 20 | –
9 | AGGAAATTCCG footprint probe | – | – | 4.6 | 1.7 | Kd [11]: 3.25 nM
10 | AGGGGGATCTG (double strand) | – | – | – | – | binding signal (Kd, unit not seen) [6]: 2; binding signal (Kd, unit not seen) [7]: 10.5
11 | AGGAAATTCCG microarray probes | – | – | – | – | binding signal [12]: 3.7 z-score; binding signal [9]: 1.2 z-score; binding signal [10]: 0.55 z-score
12 | AGGAAATTCCG 11-mer in EMSA-Seq ligands | 20.4 | 13 | – | – | binding signal [1]: 40.9 z-score
